The values below come from patent publication US20070224205A1.

In this assay the target is Toll-like Receptor 5 (UniProt O60602). The assay can be described thus: cell-based or functional assay.

B1: STF2.HA1-1His(PR8), produced in E. coli (protein)
chain: MAQVINTNSLSLLTQNNLNKSQSALGTAIERLSSGLRINSAKDDAAGQAIANRFTANIKGLTQASRNANDGISIAQTTEGALNEINNNLQRVRELAVQSANSTNSQSDLDSIQAEITQRLNEIDRVSGQTQFNGVKVLAQDNTLTIQVGANDGETIDIDLKQINSQTLGLDSLNVQKAYDVKDTAVTTKAYANNGTTLDVSGLDDAAIKAATGGTNGTASVTGGAVKFDADNNKYFVTIGGFTGADAAKNGDYEVNVATDGTVTLAAGATKTTMPAGATTKTEVQELKDTPAVVSADAKNALIAGGVDATDANGAELVKMSYTDKNGKTIEGGYALKAGDKYYAADYDEATGAIKAKTTSYTAADGTTKTAANQLGGVDGKTEVVTIDGKTYNASKAAGHDFKAQPELAEAAAKTTENPLQKIDAALAQVDALRSDLGAVQNRFNSAITNLGNTVNNLSEARSRIEDSDYATEVSNMSRAQILQQAGTSVLAQANQVPQNVLSLLASHNGKLCRLKGIAPLQLGKCNIAGWLLGNPECDPLLPVRSWSYIVETPNSENGICYPGDFIDYEELREQLSSVSSFERFEIFPKESSWPNHNTNGVTAACSHEGKSSFYRNLLWLTEKEGSYPKLKNSYVNKKGKEVLVLWGIHHPPNSKEQQNLYQNENAYVSVVTSNYNRRFTPEIAERPKVRDQAGRMNYYWTLLKPGDTIIFEANGNLIAPMYAFALSRGFGSGIITSNASMHECNTKCQTPLGAINSSLPYQNIHPVTIGECPKYVRHHHHHH
For the molecule B1, the TLR5 activity (EC50, ng/ml); IL-8 secretion by HEK293 cells worked out at 0.2 ng/mL.

B2: STF2.HA1-2(PR8), produced in E. coli (protein)
chain: MAQVINTNSLSLLTQNNLNKSQSALGTAIERLSSGLRINSAKDDAAGQAIANRFTANIKGLTQASRNANDGISIAQTTEGALNEINNNLQRVRELAVQSANSTNSQSDLDSIQAEITQRLNEIDRVSGQTQFNGVKVLAQDNTLTIQVGANDGETIDIDLKQINSQTLGLDSLNVQKAYDVKDTAVTTKAYANNGTTLDVSGLDDAAIKAATGGTNGTASVTGGAVKFDADNNKYFVTIGGFTGADAAKNGDYEVNVATDGTVTLAAGATKTTMPAGATTKTEVQELKDTPAVVSADAKNALIAGGVDATDANGAELVKMSYTDKNGKTIEGGYALKAGDKYYAADYDEATGAIKAKTTSYTAADGTTKTAANQLGGVDGKTEVVTIDGKTYNASKAAGHDFKAQPELAEAAAKTTENPLQKIDAALAQVDALRSDLGAVQNRFNSAITNLGNTVNNLSEARSRIEDSDYATEVSNMSRAQILQQAGTSVLAQANQVPQNVLSLLAKGIAPLQLGKCNIAGWLLGNPECDPLLPVRSWSYIVETPNSENGICYPGDFIDYEELREQLSSVSSFERFEIFPKESSWPNHNTNGVTAACSHEGKSSFYRNLLWLTEKEGSYPKLKNSYVNKKGKEVLVLWGIHHPPNSKEQQNLYQNENAYVSVVTSNYNRRFTPEIAERPKVRDQAGRMNYYWTLLKPGDTIIFEANGNLIAPMYAFALSRGFGSGIITS
The molecule B2 registered a TLR5 activity (EC50, ng/ml); IL-8 secretion by HEK293 cells of 0.15 ng/mL.

B3: STF2.HA1-2His(PR8), produced in Baculovirus (protein)
chain: AQVINTNSLSLLTQNNLNKSQSALGTAIERLSSGLRINSAKDDAAGQAIANRFTANIKGLTQASRNANDGISIAQTTEGALNEINNNLQRVRELAVQSANSTNSQSDLDSIQAEITQRLNEIDRVSGQTQFNGVKVLAQDNTLTIQVGANDGETIDIDLKQINSQTLGLDSLNVQKAYDVKDTAVTTKAYANNGTTLDVSGLDDAAIKAATGGTNGTASVTGGAVKFDADNNKYFVTIGGFTGADAAKNGDYEVNVATDGTVTLAAGATKTTMPAGATTKTEVQELKDTPAVVSADAKNALIAGGVDATDANGAELVKMSYTDKNGKTIEGGYALKAGDKYYAADYDEATGAIKAKTTSYTAADGTTKTAANQLGGVDGKTEVVTIDGKTYNASKAAGHDFKAQPELAEAAAKTTENPLQKIDAALAQVDALRSDLGAVQNRFNSAITNLGNTVNNLSEARSRIEDSDYATEVSNMSRAQILQQAGTSVLAQANQVPQNVLSLLASGSGSGSKGIAPQLGKCNIAGWLLGNPECDPLLPVRSWSYIVETPNSENGICYPGDFIDYEELREQLSSVSSFERFEIFPKESSWPNHNTNGVTAACSHEGKSSFYRNLLWLTEKEGSYPKLKNSYVNKKGKEVLVLWGIHHPPNSKEQQNLYQNENAYVSVVTSNYNRRFTPEIAERPKVRDQAGRMNYYWTLLKPGDTIIFEANGNLIAPMYAFALSRGFGSGIITSHHHHHH
In turn, B3 returned a TLR activity (EC50, ng/ml); IL-8 secretion by HEK293 cells of 9 ng/mL.

B4: ngSTF2.HA1-2mutHis(PR8) (protein)
chain: AQVINTNSLSLLTQNNLQKSQSALGTAIERLSSGLRINSAKDDAAGQAIANRFTANIKGLTQASRNANDGISIAQTTEGALNEINNNLQRVRELAVQSAQSTNSQSDLDSIQAEITQRLNEIDRVSGQTQFNGVKVLAQDNTLTIQVGANDGETIDIDLKQINSQTLGLDSLNVQKAYDVKDTAVTTKAYANQGTTLDVSGLDDAAIKAATGGTQGTASVTGGAVKFDADNNKYFVTIGGFTGADAAKNGDYEVNVATDGTVTLAAGATKTTMPAGATTKTEVQELKDTPAVVSADAKNALIAGGVDATDANGAELVKMSYTDKNGKTIEGGYALKAGDKYYAADYDEATGAIKAKTTSYTAADGTTKTAANQLGGVDGKTEVVTIDGKTYQASKAAGHDFKAQPELAEAAAKTTENPLQKIDAALAQVDALRSDLGAVQNRFNSAITNLGNTVNQLSEARSRIEDSDYATEVSQMSRAQILQQAGTSVLAQANQVPQNVLSLLASGSGSGSKGAAPQLGKCNIAGWLLGNPECDPLLPVRSWSDIAETPNSENGICYPGDFIDYEELREQLSSVSSFERFEIFPKESSWPNHNTNGVTAACSHEGKSSFYRNLLWLTEKEGSYPKLKNSYVNKKGKEVLVLWGIHHPPNSKEQQNLYQNENAYVSVVTSNYNRRFTPEIAERPKVRDQAGRMNYYWTLLKPGDTIIFEANGNLIAPMYAFALSRGFGSGIITSHHHHHH
As to B4, the TLR activity (EC50, ng/ml); IL-8 secretion by HEK293 cells amounted to 9 ng/mL.

B5: STF2.HA1-2mutHis(PR8), produced in Baculovirus (protein)
chain: AQVINTNSLSLLTQNNLNKSQSALGTAIERLSSGLRINSAKDDAAGQAIANRFTANIKGLTQASRNANDGISIAQTTEGALNEINNNLQRVRELAVQSANSTNSQSDLDSIQAEITQRLNEIDRVSGQTQFNGVKVLAQDNTLTIQVGANDGETIDIDLKQINSQTLGLDSLNVQKAYDVKDTAVTTKAYANNGTTLDVSGLDDAAIKAATGGTNGTASVTGGAVKFDADNNKYFVTIGGFTGADAAKNGDYEVNVATDGTVTLAAGATKTTMPAGATTKTEVQELKDTPAVVSADAKNALIAGGVDATDANGAELVKMSYTDKNGKTIEGGYALKAGDKYYAADYDEATGAIKAKTTSYTAADGTTKTAANQLGGVDGKTEVVTIDGKTYNASKAAGHDFKAQPELAEAAAKTTENPLQKIDAALAQVDALRSDLGAVQNRFNSAITNLGNTVNNLSEARSRIEDSDYATEVSNMSRAQILQQAGTSVLAQANQVPQNVLSLLASGSGSGSKGAAPLQLGKCNIAGWLLGNPECDPLLPVRSWSDIAETPNSENGICYPGDFIDYEELREQLSSVSSFERFEIFPKESSWPNHNTNGVTAACSHEGKSSFYRNLLWLTEKEGSYPKLKNSYVNKKGKEVLVLWGIHHPPNSKEQQNLYQNENAYVSVVTSNYNRRFTPEIAERPKVRDQAGRMNYYWTLLKPGDTIIFEANGNLIAPMYAFALSRGFGSGIITSHHHHHH
For B5, the TLR activity (EC50, ng/ml); IL-8 secretion by HEK293 cells amounted to 900 ng/mL.
